# Laboratory results: publication PMC6995525, “Structure of the PUB Domain from Ubiquitin Regulatory X Domain Protein 1 (UBXD1) and Its Interaction with the p97 AAA+ ATPase” (Biomolecules, 2019)
# No end group written: not given here.
# T1: UBXD1-PUB (150–264) N184A (UniProt Q9BZV1 150-264, N184A)
# T1 construct: UBXD1 PUB domain construct, residues 150-264, point mutant; source: E. coli Rosetta2, purified (Ni-NTA, thrombin cleavage of the tag, SEC); not shown: His6, N-terminal, cleaved
# T1 sequence (looked up): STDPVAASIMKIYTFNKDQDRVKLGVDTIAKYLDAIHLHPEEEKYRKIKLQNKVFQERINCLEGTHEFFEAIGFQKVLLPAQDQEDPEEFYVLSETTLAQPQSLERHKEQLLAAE
# T2: UBXD1-PUB (150–264) N201D (UniProt Q9BZV1 150-264, N201D)
# T2 construct: UBXD1 PUB domain construct, residues 150-264, point mutant; source: E. coli Rosetta2, purified (Ni-NTA, thrombin cleavage of the tag, SEC); not shown: His6, N-terminal, cleaved
# T2 sequence (looked up): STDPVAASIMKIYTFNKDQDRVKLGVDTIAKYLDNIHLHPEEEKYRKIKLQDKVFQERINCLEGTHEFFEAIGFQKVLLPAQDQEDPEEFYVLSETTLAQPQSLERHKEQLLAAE
# T3: UBXD1-PUB (150–264) K193E (UniProt Q9BZV1 150-264, K193E)
# T3 construct: UBXD1 PUB domain construct, residues 150-264, point mutant; source: E. coli Rosetta2, purified (Ni-NTA, thrombin cleavage of the tag, SEC); not shown: His6, N-terminal, cleaved
# T3 sequence (looked up): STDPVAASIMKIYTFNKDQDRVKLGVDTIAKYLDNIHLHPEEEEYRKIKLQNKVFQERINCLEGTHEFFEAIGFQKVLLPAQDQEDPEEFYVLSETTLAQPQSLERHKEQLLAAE
# T4: UBXD1-PUB (150–264) Y194A (UniProt Q9BZV1 150-264, Y194A)
# T4 construct: UBXD1 PUB domain construct, residues 150-264, point mutant; source: E. coli Rosetta2, purified (Ni-NTA, thrombin cleavage of the tag, SEC); not shown: His6, N-terminal, cleaved
# T4 sequence (looked up): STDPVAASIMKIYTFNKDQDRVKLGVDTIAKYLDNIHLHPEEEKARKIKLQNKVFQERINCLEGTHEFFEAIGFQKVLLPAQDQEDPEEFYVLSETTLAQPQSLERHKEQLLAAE
# T5: UBXD1-PUB (150–264) N201A (UniProt Q9BZV1 150-264, N201A)
# T5 construct: UBXD1 PUB domain construct, residues 150-264, point mutant; source: E. coli Rosetta2, purified (Ni-NTA, thrombin cleavage of the tag, SEC); not shown: His6, N-terminal, cleaved
# T5 sequence (looked up): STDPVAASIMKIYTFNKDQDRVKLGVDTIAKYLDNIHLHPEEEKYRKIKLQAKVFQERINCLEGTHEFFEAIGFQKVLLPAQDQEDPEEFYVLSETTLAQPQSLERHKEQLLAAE
# T6: UBXD1-PUB (150–264) V203A (UniProt Q9BZV1 150-264, V203A)
# T6 construct: UBXD1 PUB domain construct, residues 150-264, point mutant; source: E. coli Rosetta2, purified (Ni-NTA, thrombin cleavage of the tag, SEC); not shown: His6, N-terminal, cleaved
# T6 sequence (looked up): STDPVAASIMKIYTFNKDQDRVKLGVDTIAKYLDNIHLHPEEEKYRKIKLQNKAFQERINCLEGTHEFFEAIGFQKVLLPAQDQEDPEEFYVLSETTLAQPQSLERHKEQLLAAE
# T7: UBXD1-PUB (150–264) Q200A (UniProt Q9BZV1 150-264, Q200A)
# T7 construct: UBXD1 PUB domain construct, residues 150-264, point mutant; source: E. coli Rosetta2, purified (Ni-NTA, thrombin cleavage of the tag, SEC); not shown: His6, N-terminal, cleaved
# T7 sequence (looked up): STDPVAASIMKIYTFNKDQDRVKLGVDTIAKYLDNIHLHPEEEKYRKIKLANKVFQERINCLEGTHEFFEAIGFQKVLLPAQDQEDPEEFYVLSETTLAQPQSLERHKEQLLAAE
# T8: UBXD1-PUB (150–264) K198E (UniProt Q9BZV1 150-264, K198E)
# T8 construct: UBXD1 PUB domain construct, residues 150-264, point mutant; source: E. coli Rosetta2, purified (Ni-NTA, thrombin cleavage of the tag, SEC); not shown: His6, N-terminal, cleaved
# T8 sequence (looked up): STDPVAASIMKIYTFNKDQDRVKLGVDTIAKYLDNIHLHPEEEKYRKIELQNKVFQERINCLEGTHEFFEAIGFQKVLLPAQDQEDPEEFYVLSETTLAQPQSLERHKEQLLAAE
# T9: UBXD1-PUB (150–264) E206R (UniProt Q9BZV1 150-264, E206R)
# T9 construct: UBXD1 PUB domain construct, residues 150-264, point mutant; source: E. coli Rosetta2, purified (Ni-NTA, thrombin cleavage of the tag, SEC); not shown: His6, N-terminal, cleaved
# T9 sequence (looked up): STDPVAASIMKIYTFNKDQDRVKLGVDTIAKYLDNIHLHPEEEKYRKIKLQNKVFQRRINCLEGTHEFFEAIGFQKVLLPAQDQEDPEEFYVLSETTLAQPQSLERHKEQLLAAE
# T10: UBXD1-PUB (150–264) Y181A (UniProt Q9BZV1 150-264, Y181A)
# T10 construct: UBXD1 PUB domain construct, residues 150-264, point mutant; source: E. coli Rosetta2, purified (Ni-NTA, thrombin cleavage of the tag, SEC); not shown: His6, N-terminal, cleaved
# T10 sequence (looked up): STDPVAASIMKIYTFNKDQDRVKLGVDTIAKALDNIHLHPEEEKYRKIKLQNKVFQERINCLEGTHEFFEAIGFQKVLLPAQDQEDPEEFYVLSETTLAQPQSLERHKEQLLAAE
# T11: UBXD1-PUB (150–264) Y194F (UniProt Q9BZV1 150-264, Y194F)
# T11 construct: UBXD1 PUB domain construct, residues 150-264, point mutant; source: E. coli Rosetta2, purified (Ni-NTA, thrombin cleavage of the tag, SEC); not shown: His6, N-terminal, cleaved
# T11 sequence (looked up): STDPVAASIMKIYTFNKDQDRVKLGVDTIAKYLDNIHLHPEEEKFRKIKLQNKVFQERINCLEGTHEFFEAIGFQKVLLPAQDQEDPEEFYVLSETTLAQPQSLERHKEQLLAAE
# T12: UBXD1-PUB (150–264) R207E (UniProt Q9BZV1 150-264, R207E)
# T12 construct: UBXD1 PUB domain construct, residues 150-264, point mutant; source: E. coli Rosetta2, purified (Ni-NTA, thrombin cleavage of the tag, SEC); not shown: His6, N-terminal, cleaved
# T12 sequence (looked up): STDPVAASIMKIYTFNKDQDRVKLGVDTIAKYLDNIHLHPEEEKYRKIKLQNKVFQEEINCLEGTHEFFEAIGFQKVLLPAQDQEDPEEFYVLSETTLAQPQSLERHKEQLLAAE
# T13: UBXD1-PUB (150–264) N184D (UniProt Q9BZV1 150-264, N184D)
# T13 construct: UBXD1 PUB domain construct, residues 150-264, point mutant; source: E. coli Rosetta2, purified (Ni-NTA, thrombin cleavage of the tag, SEC); not shown: His6, N-terminal, cleaved
# T13 sequence (looked up): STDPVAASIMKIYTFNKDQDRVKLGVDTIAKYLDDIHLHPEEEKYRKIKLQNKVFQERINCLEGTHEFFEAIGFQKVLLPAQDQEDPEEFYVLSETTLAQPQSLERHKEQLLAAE
# T14: UBXD1-PUB (150–264) Y181F (UniProt Q9BZV1 150-264, Y181F)
# T14 construct: UBXD1 PUB domain construct, residues 150-264, point mutant; source: E. coli Rosetta2, purified (Ni-NTA, thrombin cleavage of the tag, SEC); not shown: His6, N-terminal, cleaved
# T14 sequence (looked up): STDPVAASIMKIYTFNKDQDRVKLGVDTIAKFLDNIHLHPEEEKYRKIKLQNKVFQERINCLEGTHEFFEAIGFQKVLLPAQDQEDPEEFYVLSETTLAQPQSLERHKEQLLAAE
# B1: UBXD1-PUB (150–264) (domain or fragment, UniProt Q9BZV1 150-264, looked up)
# chain: STDPVAASIMKIYTFNKDQDRVKLGVDTIAKYLDNIHLHPEEEKYRKIKLQNKVFQERINCLEGTHEFFEAIGFQKVLLPAQDQEDPEEFYVLSETTLAQPQSLERHKEQLLAAE
# notes: UBXD1 (ubiquitin regulatory X domain protein 1), PUB domain construct, residues 150-264; Cloned into pET28a (NdeI/HindIII); a few vector residues probably remain after thrombin cleavage (surmised); Theoretical MW 13.80 kDa; 15N- or 13C,15N-labelled for NMR; also called UBXD1-PUB wt; wild type (wt); source: E. coli Rosetta2, purified (Ni-NTA, thrombin cleavage of the tag, SEC); not shown: His6, …
# Key:
# Conditions in all cases: both partners purified
# full-length p97 = molecular target: T15, full-length p97 (UniProt P55072 1-806); assay: fluorescence polarisation; fluorescence anisotropy of UBXD1-PUB wt with full length p97; which partner was labeled and titrated is not told
# T15 construct: AAA+ ATPase p97 / valosin-containing protein (VCP) / Cdc48, full length; Cloning, tags and purification of p97-fl are not described; the methods say only that 'all proteins were expressed in Escherichia coli Rosetta2' and purified by Ni-NTA and SEC after thrombin cleavage; also called p97-fl; VCP
# [1] = molecular target: T1, UBXD1-PUB (150–264) N184A; assay: fluorescence polarisation; fluorescence anisotropy; PUB constructs titrated to 100 nM 5,6-FAM labeled p97-C10 peptide; 50 mM NaKPi pH 6.5, 25 °C; triplicate; one-site quadratic fit
# [2] = molecular target: T2, UBXD1-PUB (150–264) N201D; assay: as above
# [3] = molecular target: T3, UBXD1-PUB (150–264) K193E; assay: as above
# [4] = molecular target: T4, UBXD1-PUB (150–264) Y194A; assay: as above
# [5] = molecular target: T5, UBXD1-PUB (150–264) N201A; assay: as above
# [6] = molecular target: T6, UBXD1-PUB (150–264) V203A; assay: as above
# [7] = molecular target: T7, UBXD1-PUB (150–264) Q200A; assay: as above
# [8] = molecular target: T8, UBXD1-PUB (150–264) K198E; assay: as above
# [9] = molecular target: T9, UBXD1-PUB (150–264) E206R; assay: as above
# UBXD1-PUB (150–264) [10] = molecular target: B1; assay: as above
# [11] = molecular target: T10, UBXD1-PUB (150–264) Y181A; assay: as above
# [12] = molecular target: T11, UBXD1-PUB (150–264) Y194F; assay: as above
# [13] = molecular target: T12, UBXD1-PUB (150–264) R207E; assay: as above
# [14] = molecular target: T13, UBXD1-PUB (150–264) N184D; assay: as above
# [15] = molecular target: T14, UBXD1-PUB (150–264) Y181F; assay: as above
# UBXD1-PUB (150–264) [16] = molecular target: B1; assay: ITC; UBXD1-PUB (100 µM) titrated with 1 mM p97-C10 peptide; 50 mM NaKPi pH 6.5, 25 °C; single-site model; triplicate, parameters averaged
# T15 sequence (P55072 whole entry): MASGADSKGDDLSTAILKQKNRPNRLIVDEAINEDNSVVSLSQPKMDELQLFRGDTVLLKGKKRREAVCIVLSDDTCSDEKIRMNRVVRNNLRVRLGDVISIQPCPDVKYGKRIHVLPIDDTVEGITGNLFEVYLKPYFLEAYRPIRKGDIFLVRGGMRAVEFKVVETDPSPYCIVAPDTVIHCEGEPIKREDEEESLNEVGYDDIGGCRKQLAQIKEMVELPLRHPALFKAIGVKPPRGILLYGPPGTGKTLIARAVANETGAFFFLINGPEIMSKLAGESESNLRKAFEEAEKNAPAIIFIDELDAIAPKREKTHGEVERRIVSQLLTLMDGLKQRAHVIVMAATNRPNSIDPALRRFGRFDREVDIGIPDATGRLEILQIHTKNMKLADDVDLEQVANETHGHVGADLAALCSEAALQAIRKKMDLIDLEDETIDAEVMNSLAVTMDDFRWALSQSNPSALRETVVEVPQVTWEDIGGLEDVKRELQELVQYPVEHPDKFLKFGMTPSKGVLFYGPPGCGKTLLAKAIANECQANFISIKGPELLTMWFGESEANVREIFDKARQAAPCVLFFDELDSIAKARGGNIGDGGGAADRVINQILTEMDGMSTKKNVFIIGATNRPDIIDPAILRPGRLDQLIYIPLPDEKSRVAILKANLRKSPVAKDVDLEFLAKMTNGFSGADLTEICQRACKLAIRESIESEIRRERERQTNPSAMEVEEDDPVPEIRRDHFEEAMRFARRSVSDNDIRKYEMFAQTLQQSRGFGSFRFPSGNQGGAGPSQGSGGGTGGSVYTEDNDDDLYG
binder,measurement,setting,value
B1,Kd,full-length p97,8.4 µM
"TEDNDDDLYG (also: 5,6-FAM label, position not given here, source: synthetic peptide, bought: Caslo ApS (Denmark)) [5,6-FAM-labeled p97-C10 peptide]",Kd,[1],28.7 µM
same,Kd,[2],280 µM
same,Kd,[3],17.7 µM
same,Kd,[4],53 µM
same,Kd,[5],64.1 µM
same,Kd,[6],25.3 µM
same,Kd,[7],8.3 µM
same,Kd,[8],49.3 µM
same,Kd,[9],39.4 µM
same,Kd,UBXD1-PUB (150–264) [10],13.8 µM
same,Kd,[11],111 µM
same,Kd,[12],141 µM
same,Kd,[13],88 µM
same,Kd,[14],80 µM
same,Kd,[15],28.4 µM
"TEDNDDDLYG (also called p97-PIM; p97-C10 PIM peptide; source: synthetic peptide, bought: Caslo ApS (Denmark)) [p97-C10 peptide (unlabeled)]",Kd,UBXD1-PUB (150–264) [16],15 ± 5 µM
same,dH,UBXD1-PUB (150–264) [16],-3.25 ± 0.483 kcal/mol
same,stoichiometry N,UBXD1-PUB (150–264) [16],1.1 ± 0.2
